Experimental data reported in patent US6066780A, “Modification of lignin synthesis in plants” (Zeneca Limited, priority 1991, dated 2000).

Substrate: COc1cc(/C=C/CO)ccc1O
Experiment: Kinetic characterisation of purified tobacco CAD enzyme
Assay type: biochemical
Settings: other: pure enzyme purified to homogeneity from tobacco stems; specific for NADP; pH 7.5
Method: Six week old tobacco stems were frozen in liquid N, crushed with a hammer and homogenized in a Waring blender in buffer A. The homogenate was centrifuged at 45000×g for 30 min. Solid ammonium sulphate was added to the supernatant to bring it to 70% saturation and proteins were precipitated at 4° C. for 30 min. The precipitate was collected by centrifugation at 10,000 rpm for 1 hour. The pellet was resuspended in a minimum volume of buffer supplemented with 5% ethylene glycol, to reduce the ammonium sulphate concentration to approximately 40% saturation.
The supernatant was desalted and applied to a Blue Sepharose column. The column was washed in at least 6 column volumes buffer including one column volume supplemented with 4 mM NAD. This wash elutes other alcohol dehydrogenases. Specific elution of CAD was performed with a gradient of 0-4 mM NADP in buffer B. CAD-containing fractions were pooled and 5% ethylene glycol was added.
The pooled fractions from Blue Sepharose were applied to an FPLC Mono Q column. The column was washed until the Absorbance dropped to baseline levels. Proteins were eluted in a linear gradient of buffer with 20-400 mM Tris-HCl, pH 7.5.
MonoQ fractions were applied to a column of 2'5'ADP-Sepharose. The column was washed with 6 column volumes buffer including one column volume supplemented with 4 mM NAD. […]

B1: tobacco cinnamyl alcohol dehydrogenase (CAD, E.C. 1.1.1.195), purified from tobacco stems (Nicotiana tabacum) (protein)
chain 1: MGSLDVEKSAIGWAARDPSGLLSPYTYTLRNTGPEDVQVKVLYCGLCHSDLHQVKNDLGMSNYPLVPGHEVVGKVVEVGADVSKFKVGDTVGVGLLVGSCRNCGPCKREIEQYCNKKIWNCNDVYTDGKPTQGGFANSMVVDQNFVVKIPEGMAPEQAAPLLCAGITVYSPFNHFGFNQSGFRGGILGLGGVGHMGVKIAKAMGHHVTVISSSNKKRQEALEHLGADDYLVSSDTDKMQEAADSLDYIIDTVPVGHPLELYLSLLKIDGKLILIGVINTPLQFISPMVMLGRKSITGSFIGSMKETEEMLDFCKEKGVTSQIEIVKMDYINTAMERLEKNDVSYRFVVDVAGSKLDQ
chain 2: MGGLEVEKTTIGWAARDPSGVLSPYTYTLRNTGPEDVEVKVLYCGLCHTDLHQVKNDLGMSNYPLVPGHEVVGEVVEVGPDVSKFKVGDTVGVGLLVGSCRNCGPCKRDIEQYCNKKIWNCNDVYTDGKPTQGGFAKSMVVDQKFVVKIPEGMAPEQAAPLLCAGITVYSPLNHFGFKQSGLRGGILGLGGVGHMGVKIAKAMGHHVTVISSSNKKRQEALEHLGADDYLVSSDTDKMQEASDSLDYIIDTVPVGHPLEPYLSLLKIDGKLILMGVINTPLQFISPMVMLGRKSITGSFIGSMKETEEMLDFCKEKGVTSQIEIVKMDYINTAMERLEKNDVRYRFVVDVIGSKLDQ
notes: Using this protocol tobacco CAD was purified to homogeneity; from tissue; host or cells: stems of six week old tobacco plants
Q: Which Km does the source give for B1 here?
A: 12 µM
